Results taken from IntAct's records for PubMed 18571423.

B1: Histone-binding protein RBBP7 (Homo sapiens), Q16576 (parent)
chain: MASKEMFEDTVEERVINEEYKIWKKNTPFLYDLVMTHALQWPSLTVQWLPEVTKPEGKDYALHWLVLGTHTSDEQNHLVVARVHIPNDDAQFDASHCDSDKGEFGGFGSVTGKIECEIKINHEGEVNRARYMPQNPHIIATKTPSSDVLVFDYTKHPAKPDPSGECNPDLRLRGHQKEGYGLSWNSNLSGHLLSASDDHTVCLWDINAGPKEGKIVDAKAIFTGHSAVVEDVAWHLLHESLFGSVADDQKLMIWDTRSNTTSKPSHLVDAHTAEVNCLSFNPYSEFILATGSADKTVALWDLRNLKLKLHTFESHKDEIFQVHWSPHNETILASSGTDRRLNVWDLSKIGEEQSAEDAEDGPPELLFIHGGHTAKISDFSWNPNEPWVICSVSEDNIMQIWQMAENIYNDEESDVTTSELEGQGS

Variants of: B1
Details: with h4_human H4C16, P62805

Effect of a mutation on the interaction, disrupting interaction:
L30Y;E356Q;D357N;E359Q;D360N
E356Q;D357N;E359Q;D360N
L30Y
